The source of these data is publication PMC3725403.

For the data set, the target named is Arg224 (UniProt position 224, YHALYRYFVEL). Briefly: electrophysiology.

As for “TASK-2 (K2P5.1) two-pore domain K+ channel (Mus musculus)”, the pKa (as a rule, the pH at which an ionisable group is half protonated) (bath: 135 mM sodium gluconate, 1 mM potassium gluconate, 4 mM KCl, 2 mM CaCl2, 1 mM MgCl2, 105 mM sucrose, pipette: 8 mM KCl, 132 mM potassium gluconate, 1 mM MgCl2, 10 mM EGTA, 1 mM Na3ATP, 0.1 mM GT, 10 mM HEPES/Tris, 0 mV value from a fit across voltages, [K+]i/[K+]o 140/5 mM, intracellular pH 7.4) is given as 8.37; the pKa (bath: 135 mM sodium gluconate, 1 mM potassium gluconate, 4 mM KCl, 2 mM CaCl2, 1 mM MgCl2, 105 mM sucrose, pipette: 8 mM KCl, 132 mM potassium gluconate, 1 mM MgCl2, 10 mM EGTA, 1 mM Na3ATP, 0.1 mM GT, 10 mM HEPES/Tris, membrane potential +60 mV, [K+]i/[K+]o 140/5 mM, intracellular pH 7.4) is reported as 8.15; the pKa (bath: 135 mM sodium gluconate, 1 mM potassium gluconate, 4 mM KCl, 2 mM CaCl2, 1 mM MgCl2, 105 mM sucrose, pipette: 8 mM KCl, 132 mM potassium gluconate, 1 mM MgCl2, 10 mM EGTA, 1 mM Na3ATP, 0.1 mM GT, 10 mM HEPES/Tris, membrane potential -120 mV, [K+]i/[K+]o 140/5 mM, intracellular pH 7.4) was found to be 8.76; the pKa (not stated, most extracellular Cl- replaced by sulphate, extracellular solution with most Cl- replaced by sulphate, voltage not stated, cited from earlier work) was 8.0.
